{"source": "patent US20110064670A1", "about": "“METHOD TO IDENTIFY A PATIENT WITH AN INCREASED LIKELIHOOD OF RESPONDING TO AN ANTI-CANCER AGENT” (Genentech, Inc., priority 2009, published 2011)", "tested_on": "non-tumor bearing mice", "experiment": "Lymph pulsation frequency assay in non-tumor bearing mice", "format": "in vivo, mouse", "settings": "acute injection, n=6 animals/group (FIG. 6B)", "description": "Female Balb-c nude mice from Charles River Laboratory were used at 6-8 weeks of age. To establish baseline pulsation frequency and lymph node loading rates we imaged non-tumor bearing mice. In some cases mice were longitudinally imaged for pulsation, i.e., the same mouse was imaged daily over a 7-day period. Mice were anesthetized with 2% Isoflurane and maintained at 37° C. throughout experiments. A PulseOx probe was attached to the thigh (opposing injection site) to monitor heart rate before running pulsation assays.\nFor all experiments fluorescent dye injections were performed with 5 mg AlexaFluor680 conjugated to dextran 70 kd (MolecularProbes) in 1 ml sterile PBS. […]\nEpi-fluorescence Microscopy Pulsatile flow activity was observed using an epifluorescence microscope (Prairie Technologies) equipped with a Cy5.5 Red filter set (Chroma), Halogen light source (ExFo Excite Series 120), 4× objective lens (Olympus) and a charge coupled device (CCD) camera (S97827, Olympus). […] Pulsation and heart rates were monitored (PulseOx) for stability for 10 minutes before video capture. […]\nDigital videos (5 minutes) of pulsation were acquired with PictureFrame software (Optronics) using time lapse settings (282 ms exposure, no inter-frame delay, 5 minutes total acquisition time). Data was analyzed off-line from recorded time lapse videos. […]"}
{"molecule": "recombinant VEGF-C protein: recombinant VEGF-C protein injected acutely in non-tumor bearing mice (protein, UniProt P97953 108-223, looked up) Vascular endothelial growth …: AHYNTEILKSIDNEWRKTQCMPREVCIDVGKEFGAATNTFFKPPCVSVYRCGGCCNSEGLQCMNTSTGYLSKTLFEITVPLSQGPKPVTISFANHTSCRCMSKLDVYRQVHSIIRR", "values": [{"measurement": "lymph pulsation frequency", "result": "does not result in any significant change"}]}
